In patent US20070270364:

Target: GST-p68 fusion polypeptides

B1: histone acetyltransferase (HAT) region of p300 (protein)
chain: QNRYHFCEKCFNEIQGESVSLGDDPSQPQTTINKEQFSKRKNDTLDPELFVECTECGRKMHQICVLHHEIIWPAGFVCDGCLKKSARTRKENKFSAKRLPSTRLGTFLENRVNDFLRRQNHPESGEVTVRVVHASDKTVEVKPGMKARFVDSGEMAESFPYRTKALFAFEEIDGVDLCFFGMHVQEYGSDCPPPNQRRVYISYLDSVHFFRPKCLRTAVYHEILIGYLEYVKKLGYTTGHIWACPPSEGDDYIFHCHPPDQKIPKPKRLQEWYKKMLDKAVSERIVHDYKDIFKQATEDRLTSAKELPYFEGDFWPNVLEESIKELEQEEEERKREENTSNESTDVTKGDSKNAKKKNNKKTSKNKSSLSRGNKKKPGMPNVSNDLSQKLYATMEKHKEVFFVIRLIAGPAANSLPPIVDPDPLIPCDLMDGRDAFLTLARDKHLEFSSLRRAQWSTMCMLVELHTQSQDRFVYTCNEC
  in vitro 14C-acetylation of GST-p68 fusion polypeptides (autoradiogram): p300 indeed acetylated p68 polypeptides exclusively within its N-terminal 80 amino acids
